{
  "source": "paper PMC3903436",
  "key": {"[1]": {"target": "MUC16 (CA125), native, membrane-bound on cancer cells (human (endogenous in OVCAR3 and HeLa)) (UniProt Q8WXI7)"}, "[2]": {"target": "MUC16 (CA125), native, membrane-bound on cancer cells (human (endogenous in OVCAR3 and HeLa)) (UniProt Q8WXI7)", "remark": "listed apart in the source"}, "[3]": {"target": "MUC16 (CA125), native, membrane-bound on cancer cells (human (endogenous in OVCAR3 and HeLa)) (UniProt Q8WXI7)", "test": "flow cytometry on cells; OVCAR3 cells in suspension incubated with HEK293T-derived culture supernatant containing soluble mesothelin; bound mesothelin detected with anti-FLAG mAb M2 and FITC-conjugated secondary Ab; culture medium alone as negative control"}},
  "data": [
    {"substance": "Meso-TR3 (mesothelin-TR3 fusion protein) (from UniProt P50591 39-281; P50591 39-281; P50591 39-281)", "values": [
      {"measurement": "reduction of the luciferase signal (tumor burden) of intraperitoneal OVCAR3 xenografts in NOD/SCID mice at 7 days of i.p. treatment with Meso-TR3 (control and TR3 groups did not respond)", "setting": "[1]", "result": 600, "unit": "fold"},
      {"measurement": "share of MUC16-positive cells in the HeLa cell pool after Meso-TR3 treatment, by flow cytometry (80% to 54%; non-targeted TR3 did not shift the ratio)", "setting": "[2]", "result": "> 30", "unit": "%"}
    ]},
    {"substance": "soluble mesothelin (FLAG tagged, GPI anchor-deleted mature form) (ligand)", "values": [
      {"measurement": "percent of cells positive for bound mesothelin (FLAG epitope tag)", "setting": "[3]", "result": 100, "unit": "%"}
    ]}
  ]
}
